B1: Tumor protein 63 (Homo sapiens), Q9H3D4 (parent)
chain: MNFETSRCATLQYCPDPYIQRFVETPAHFSWKESYYRSTMSQSTQTNEFLSPEVFQHIWDFLEQPICSVQPIDLNFVDEPSEDGATNKIEISMDCIRMQDSDLSDPMWPQYTNLGLLNSMDQQIQNGSSSTSPYNTDHAQNSVTAPSPYAQPSSTFDALSPSPAIPSNTDYPGPHSFDVSFQQSSTAKSATWTYSTELKKLYCQIAKTCPIQIKVMTPPPQGAVIRAMPVYKKAEHVTEVVKRCPNHELSREFNEGQIAPPSHLIRVEGNSHAQYVEDPITGRQSVLVPYEPPQVGTEFTTVLYNFMCNSSCVGGMNRRPILIIVTLETRDGQVLGRRCFEARICACPGRDRKADEDSIRKQQVSDSTKNGDGTKRPFRQNTHGIQMTSIKKRRSPDDELLYLPVRGRETYEMLLKIKESLELMQYLPQHTIETYRQQQQQQHQHLLQKQTSIQSPSSYGNSSPPLNKMNSMNKLPSVSQLINPQQRNALTPTTIPDGMGANIPMMGTHMPMAGDMNGLSPTQALPPPLSMPSTSHCTPPPPYPTDCSIVSFLARLGCSSCLDYFTTQGLTTIYQIEHYSMDDLASLKIPEQFRHAIWKGILDHRQLHEFSSPSHLLRTPSSASTVSVGSSETRGERVIDAVRFTLRQTISFPPRDEWNDFNFDMDARRNKQQRIKEEGE

In the test the parent is B1. Conditions: with hipk2_human HIPK2, Q9H2X6.
Sequence of hipk2_human HIPK2, Q9H2X6 (Q9H2X6 whole entry, looked up): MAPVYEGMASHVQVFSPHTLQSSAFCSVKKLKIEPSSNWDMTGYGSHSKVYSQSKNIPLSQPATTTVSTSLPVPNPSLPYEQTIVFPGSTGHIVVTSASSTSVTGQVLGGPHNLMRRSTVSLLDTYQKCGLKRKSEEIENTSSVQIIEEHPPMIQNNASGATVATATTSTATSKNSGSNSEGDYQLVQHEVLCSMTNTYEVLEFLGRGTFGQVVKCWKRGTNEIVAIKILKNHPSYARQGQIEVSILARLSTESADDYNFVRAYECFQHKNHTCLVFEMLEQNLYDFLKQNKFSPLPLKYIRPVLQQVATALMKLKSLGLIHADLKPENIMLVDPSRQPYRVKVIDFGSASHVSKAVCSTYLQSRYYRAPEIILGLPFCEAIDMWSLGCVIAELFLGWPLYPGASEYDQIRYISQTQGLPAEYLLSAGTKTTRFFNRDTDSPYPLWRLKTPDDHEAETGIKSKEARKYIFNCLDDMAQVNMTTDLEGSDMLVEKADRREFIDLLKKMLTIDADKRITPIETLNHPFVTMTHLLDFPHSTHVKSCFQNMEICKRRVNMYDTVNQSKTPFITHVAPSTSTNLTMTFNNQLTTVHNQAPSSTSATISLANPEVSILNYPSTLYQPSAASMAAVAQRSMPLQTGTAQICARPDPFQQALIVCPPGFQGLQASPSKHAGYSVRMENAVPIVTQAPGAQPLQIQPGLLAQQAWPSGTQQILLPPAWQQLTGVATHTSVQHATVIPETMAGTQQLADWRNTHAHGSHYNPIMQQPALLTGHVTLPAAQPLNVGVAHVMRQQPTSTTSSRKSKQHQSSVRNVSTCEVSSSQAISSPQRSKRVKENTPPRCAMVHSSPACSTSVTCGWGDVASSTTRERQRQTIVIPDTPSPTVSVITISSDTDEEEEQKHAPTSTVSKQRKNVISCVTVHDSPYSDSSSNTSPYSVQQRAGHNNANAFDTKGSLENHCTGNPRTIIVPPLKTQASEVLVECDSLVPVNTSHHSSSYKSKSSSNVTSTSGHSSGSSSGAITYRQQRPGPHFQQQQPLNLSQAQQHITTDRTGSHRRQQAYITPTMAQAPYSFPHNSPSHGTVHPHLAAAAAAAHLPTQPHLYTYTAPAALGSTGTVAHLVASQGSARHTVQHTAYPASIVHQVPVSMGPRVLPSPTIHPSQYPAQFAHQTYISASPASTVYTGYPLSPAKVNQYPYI
Turning to T491A, the “effect of a mutation on the interaction” value is recorded as “disrupting interaction strength”.

The values above are taken from IntAct's records for PubMed 21602882.
